Values quoted from earlier work in publication PMC10977282.

Target: DR5 (Homo sapiens) (UniProt O14763)

OPG (from UniProt O00300)
Kd: < 400 nM
